The record followed here is the supplement of paper PMC9170038.

In this data set the test system is MS2 coat protein. Description: apparent KD of MS2 coat protein; designed switch direction (-1 OFF switch, 1 ON switch): -1; higher = weaker reporter binding. The method in brief:
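On Illumina chips, designed RNA switches with common flanks were made by stalled E. coli RNA polymerase. Titrations with SNAP-549-labelled MS2 coat protein, doubling from 0.7 or 1.5 nM to 3 µM, were done with no input, with 200 uM small-molecule ligand, or with an oligonucleotide input. Apparent KD is the median per design over clusters, from curve fits of normalised cluster fluorescence.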

The mark [1] stands for this setting: input ligand: microRNA oligo, concentration not stated.
Setting [2] is: Eterna round: R95, input ligand: FMN 200 uM.
The mark [3] stands for this setting: Eterna round: R95, input ligand: microRNA oligo, concentration not stated.
Setting [4] is: Eterna round: R95, input ligand: none.

With “GUAAUUAAUGUAGGAUAUGCAAGGCGAACCUAAGCAGAAGGACAUGAGGAUCACCCAUGUAAUGCGGUCUGCGUACAGAUCGCU [salish99_ExNG1_r4_007] (Eterna round: R96, puzzle: Exclusion NG 1)”, the “apparent KD of MS2 coat protein” value (input ligand: FMN 200 uM) was found to be 47.8 nM, the “apparent KD of MS2 coat protein” value under setting [1] was determined as 13.2 nM and the “apparent KD of MS2 coat protein” value (input ligand: none) turned out to be 24.2 nM.

In the case of “GUAAUUAAUGUAGGAUAUGCAAGGCGAACCUAAGCAGAAGGACAUGAGGAUCACCCAUGUAUUGCGGUCUGCGUUCAGUUCGCU [salish99_ExNG1_r4_011] (Eterna round: R96, puzzle: Exclusion NG 1)”, the “apparent KD of MS2 coat protein” value by setting is: (input ligand: FMN 200 uM) 9.41 nM; under setting [1], 6.39 nM; (input ligand: none) 10.2 nM.

For “GUACAGGUAGGAUAUCGAUACAAGAACAUGAGGAUCACCCAUGUGGGUCGAUUUUCGAAGCGAGAAGGACCAAAUG [Rixeatenso] (puzzle: Exclusion 5)”, the “apparent KD of MS2 coat protein” value worked out at 406 nM under setting [2], 132 nM under setting [3] and 145 nM under setting [4].

For “GUAGAGUAAGGAUAUGGAGAAUAGGAUAGAAUGGUUAGAAUCUAGAAGGUACAUGAGGAUCACCCAUGUAAUGU [Excluse me!!!! 9 - Jieux - Exclusion 4] (puzzle: Exclusion 4)”, the “apparent KD of MS2 coat protein” value under setting [3] was 21.2 nM.

As to “GUAGAGUCAGGAUAUACAAGAUCGAAAGAUCGAAGAUUUAUACAUGAGGAUCACCCAUGUAGAAGGGACUCUAC [ChP 11-04-2015 #4] (puzzle: Exclusion 2)”, the “apparent KD of MS2 coat protein” value under setting [3] was found to be 12.4 nM.

“GUAGAGUCAGGAUAUACAGAAAGUGGCUGGAAAACAGUGGCACAUGAGGAUCACCCAUGUAGAAGGGACUCUAC [ChP 11-04-2015 #1] (puzzle: Exclusion 2)”: the “apparent KD of MS2 coat protein” value under setting [3] was found to be 84.3 nM.

As to “GUAGAGUCAGGAUAUACGAGAUCGAUAGAUCGGCGAUCCAAACAUGAGGAUCACCCAUGUAGAAGGGACUCUAC [Mat - Exclusion 2 - Eli Mod - D4] (Eterna round: R97, puzzle: Exclusion 2)”, the “apparent KD of MS2 coat protein” value was determined as 1160 nM (input ligand: FMN 200 uM) and 41.6 nM (input ligand: none).

For the sequence “GUAGGGUCAGGAUAUACUGGCUGAGGGAUGUAUUGUAGUUGGUAGAAGGGACAUGAGGAUCACCCAUGUAAGUA [JR_Exclu4_Sub057] (puzzle: Exclusion 4)”, the “apparent KD of MS2 coat protein” value under setting [3] was determined as 33.2 nM.

Regarding “GUAGUGACUCGAGGAUAUCCCGACUCCUGGUCAGGAGAAGGCGACGUCAUAGCACAUGAGGAUCACCCAUGUCUUACACAUACG [Eternabot solution 32] (Eterna round: R96, puzzle: Exclusion NG 1)”, the “apparent KD of MS2 coat protein” value was determined as 25.6 nM (input ligand: FMN 200 uM), 19.5 nM under setting [1] and 23.9 nM (input ligand: none).

With “GUAUGUGAGAGAGGAUAUCGUGUACAAAGUACACGAGAAGGCUUCACAUGAGGAUCACCCAUGUACCGAGGUGAAACACCUUGA [Omei Exc(NG)1 Bv9] (Eterna round: R96, puzzle: Exclusion NG 1)”, the “apparent KD of MS2 coat protein” value reads like this: (input ligand: FMN 200 uM) 1870 nM; under setting [1], 298 nM; (input ligand: none) 423 nM.

Regarding “GUAUGUUAUGAGGAUAUCGGUGAACAUACACAUCGAGAAGGCAUGACAUGAGGAUCACCCAUGUCAAGGAUGAC [Exclusion 6 - B - 18:d] (puzzle: Exclusion 6)”, under setting [3], the “apparent KD of MS2 coat protein” value was determined as 24.9 nM.

For “GUCAAACAUGAGGAUCACCCAUGUGAGGAUAUUUAGGAUAGGAUAUGACUACUACUCCGAAGAAGGCACUCGGG [Eternabot (L1) Solution 7] (Eterna round: R97, puzzle: Exclusion 1)”, the “apparent KD of MS2 coat protein” value was 102 nM (input ligand: FMN 200 uM) and 38.5 nM (input ligand: none).

For the sequence “GUCACAUGGACAUAGGAUCACAUGAGGAUCACCCAUGUGACUAACAAGCUUUUUGUUCGUCUUAUGUCUAUGUGAAA [Stov1/16-B1] (Eterna round: R97, puzzle: Sensor, turn-off variant 1)”, the “apparent KD of MS2 coat protein” value (input ligand: FMN 200 uM) worked out at 13.5 nM and the “apparent KD of MS2 coat protein” value (input ligand: none) turned out to be 11.6 nM.

Take “GUCACUAGAGGAUAUACAAUGGUAUAUGAUCCUAGAGACAAACAUGAGGAUCACCCAUGUAGAAGGCUAGUAAU [Exclusion 2 - 3] (puzzle: Exclusion 2)”: the “apparent KD of MS2 coat protein” value stood at 23.8 nM under setting [2], 178 nM under setting [3] and 123 nM under setting [4].

Turning to “GUCAGACGAGGAUAUGAUGUCAAAGACAUGAGGAUCACCCAUGUGAUCAAUUAAUUAAGAUCAGAAGGCGUCUGAC [E5/2-A3] (Eterna round: R97, puzzle: Exclusion 5)”, the “apparent KD of MS2 coat protein” value is, setting by setting: (input ligand: FMN 200 uM) 172 nM; (input ligand: none) 222 nM.

Take “GUCAGCUCGUCAGGAUAUGCACAUGAGGAUCACCCAUGUAAGAUCAAGCUGCUUCGGCAGCAAGUGCAGAAGGGACGAGCUGAC [ENG2/9-B1] (Eterna round: R96, puzzle: Exclusion NG 2)”: the “apparent KD of MS2 coat protein” value by setting is: (input ligand: FMN 200 uM) 161 nM; under setting [1], 229 nM; (input ligand: none) 140 nM.

Take “GUCAGCUCGUGAGGAUAUACAUGAGGAUCACCCAUGUGAUCAAUAGCAGCUUCGGCUGCAAUAAUGUAGAAGGCACGAGCUGAC [ENG2/8-C] (Eterna round: R96, puzzle: Exclusion NG 2)”: the “apparent KD of MS2 coat protein” value runs as follows: (input ligand: FMN 200 uM) 60.5 nM; under setting [1], 76.2 nM; (input ligand: none) 144 nM.

With “GUCAGCUCGUGAGGAUAUACAUGAGGAUCACCCAUGUGAUCAAUAGCAGCUUCGGCUGCAUUAAUGUAGAAGGCACGAGCUGAC [ENG2/5-A1] (Eterna round: R96, puzzle: Exclusion NG 2)”, the “apparent KD of MS2 coat protein” value (input ligand: FMN 200 uM) came to 61.8 nM, the “apparent KD of MS2 coat protein” value under setting [1] worked out at 22.2 nM and the “apparent KD of MS2 coat protein” value (input ligand: none) was 152 nM.

On to “GUCAGCUCGUGAGGAUAUACAUGAGGAUCACCCAUGUGAUCAAUAGCAGCUUCGGCUGCAUUAAUGUAGAAGGUACGAGCUGAC [ENG2/5-C1] (Eterna round: R96, puzzle: Exclusion NG 2)”, for which the “apparent KD of MS2 coat protein” value reads like this: (input ligand: FMN 200 uM) 65.2 nM; under setting [1], 111 nM; (input ligand: none) 700 nM.

As for “GUCAGCUCGUGAGGAUAUAUAUAUACAUGAGGAUCACCCAUGUUAGAUCAGCUUCGGCAGUAUAUAUAGAAGGCACGAGCUGAC [ENG2/15-A1] (Eterna round: R96, puzzle: Exclusion NG 2)”, the “apparent KD of MS2 coat protein” value came to 345 nM (input ligand: FMN 200 uM), 78.9 nM under setting [1] and 87.6 nM (input ligand: none).

Consider “GUCAGUAUAUAACAAGCAUACAUGAGGAUCACCCAUGUGCGCGGAAAGCGUUUCCGCGCAUAUCGUUCCUAGCUCGG [Eternabot (Original) Solution 14] (Eterna round: R97, puzzle: Sensor, turn-off variant 1)”, for which the “apparent KD of MS2 coat protein” value came out at 419 nM (input ligand: FMN 200 uM) and 505 nM (input ligand: none).

“GUCAUCAAACAUGGGAUAAACAUGAGGAUCACCCAUGUAUACAAGUUUUUUGCUCGUCUUAUAAUAAGUUUGAUGAC [Antenna 6 - Jieux - Sensor, turn-off variant 1] (Eterna round: R97, puzzle: Sensor, turn-off variant 1)”: the “apparent KD of MS2 coat protein” value amounted to 16.4 nM (input ligand: FMN 200 uM) and 15.3 nM (input ligand: none).

Regarding “GUCAUCAAACAUGGGAUCAACAUGAGGAUCACCCAUGUUGACAAGUUUUUUGCUCGUCUUAUAAUACGUUUGAUGAC [Mod-Jx] (Eterna round: R97, puzzle: Sensor, turn-off variant 1)”, the “apparent KD of MS2 coat protein” value runs as follows: (input ligand: FMN 200 uM) 16.2 nM; (input ligand: none) 15.5 nM.

Regarding “GUCCGGCGUGUAGGAUAUGGUUCCGUUUCGGUUCCAGAAGGACAUGAGGAUCACCCAUGUGCCUGUCGUCGGUCGUCACCGGGC [salish99_ExNG1_r04_220] (Eterna round: R96, puzzle: Exclusion NG 1)”, the “apparent KD of MS2 coat protein” value is 19.5 nM (input ligand: FMN 200 uM), 10.3 nM under setting [1] and 14.8 nM (input ligand: none).

Consider “GUCGGGCGUGUCAGGAUAUGGUAGAGUGGUCGCGGCCAGAAGGGACAUGAGGAUCACCCAUGUUCCGUGGGCAG [BmEX4 C.11] (Eterna round: R97, puzzle: Brourd's mod of Exclusion 4)”, for which the “apparent KD of MS2 coat protein” value is 19 nM (input ligand: FMN 200 uM) and 19.9 nM (input ligand: none).

Turning to “GUCGUACAUGAGGAUCACCCAUGUGAGGAUAUGAGUGGUGCUGCUAGGUAGUAUAGACUCAGAAGGCGCAUGAU [Malcxlusion 2 - Jieux - Exclusion 1] (Eterna round: R97, puzzle: Exclusion 1)”, the “apparent KD of MS2 coat protein” value by setting is: (input ligand: FMN 200 uM) 250 nM; (input ligand: none) 91.5 nM.

Take “GUCGUGAGACAGGAUAUCCAAUCUAAACACGAGGGAGAAGGGUCUACAUGAGGAUCACCCAUGUGGUCUCAAAA [Aonondiin] (puzzle: Exclusion 6)”: the “apparent KD of MS2 coat protein” value under setting [3] was 17.2 nM.

Take “GUCGUGCAGCUUUGCUGUACGAGUACAUGAGGAUCACCCAUGUAGGAUAUGGUACGCUUUGCGUGCUAGAAGGAUAUGUGUAGG [salish99_ExNG3_r04_501] (Eterna round: R96, puzzle: Exclusion NG 3)”: the “apparent KD of MS2 coat protein” value (input ligand: FMN 200 uM) worked out at 49.3 nM, the “apparent KD of MS2 coat protein” value under setting [1] came out at 41.7 nM and the “apparent KD of MS2 coat protein” value (input ligand: none) worked out at 44.3 nM.

Consider “GUCGUGCGGCUGUGCUGUACGAGUACAUGAGGAUCACCCAUGUAGGAUAUGGUUCGUUUUGCGUGCUAGAAGGGCGUGCGUUUU [Excl-NG3-LRO17] (Eterna round: R96, puzzle: Exclusion NG 3)”, for which the “apparent KD of MS2 coat protein” value turned out to be 17.9 nM (input ligand: FMN 200 uM), 17 nM under setting [1] and 21.4 nM (input ligand: none).

For the sequence “GUGAAACAUGAGGAUCACCCAUGUGAGGAUAUGUUUUAGUAAUGAUGAAAGUAAAUCUACAGAAGGCACAAUGG [Mat - Mod of JL D70] (puzzle: Exclusion 1)”, the “apparent KD of MS2 coat protein” value under setting [3] stood at 77.9 nM.

On to “GUGACCAUAGGAUAUACAUGAGGAUCACCCAUGUGCAAGUCGGAAGACCUGCGGUCAUGUAGAAGGAUGUAAUU [EX3 A.19] (Eterna round: R97, puzzle: Exclusion 3)”, for which the “apparent KD of MS2 coat protein” value is, setting by setting: (input ligand: FMN 200 uM) 18.3 nM; (input ligand: none) 20.9 nM.
